Test results from patent US20130121915A1.

Tests used:
[1] = tested on: wild type OprD (FadL-OprD with C-terminal two glycines and 6 histidines)
[2] = tested on: OprD mutant L8rek#1
[3] = tested on: OprD mutant L8fxa#1
[4] = molecular target: FhuA7/10-1 with histidine tag; test: cell-based or functional assay
[5] = molecular target: T1, FhuA7/10-1 with histidine tag
T1 chain: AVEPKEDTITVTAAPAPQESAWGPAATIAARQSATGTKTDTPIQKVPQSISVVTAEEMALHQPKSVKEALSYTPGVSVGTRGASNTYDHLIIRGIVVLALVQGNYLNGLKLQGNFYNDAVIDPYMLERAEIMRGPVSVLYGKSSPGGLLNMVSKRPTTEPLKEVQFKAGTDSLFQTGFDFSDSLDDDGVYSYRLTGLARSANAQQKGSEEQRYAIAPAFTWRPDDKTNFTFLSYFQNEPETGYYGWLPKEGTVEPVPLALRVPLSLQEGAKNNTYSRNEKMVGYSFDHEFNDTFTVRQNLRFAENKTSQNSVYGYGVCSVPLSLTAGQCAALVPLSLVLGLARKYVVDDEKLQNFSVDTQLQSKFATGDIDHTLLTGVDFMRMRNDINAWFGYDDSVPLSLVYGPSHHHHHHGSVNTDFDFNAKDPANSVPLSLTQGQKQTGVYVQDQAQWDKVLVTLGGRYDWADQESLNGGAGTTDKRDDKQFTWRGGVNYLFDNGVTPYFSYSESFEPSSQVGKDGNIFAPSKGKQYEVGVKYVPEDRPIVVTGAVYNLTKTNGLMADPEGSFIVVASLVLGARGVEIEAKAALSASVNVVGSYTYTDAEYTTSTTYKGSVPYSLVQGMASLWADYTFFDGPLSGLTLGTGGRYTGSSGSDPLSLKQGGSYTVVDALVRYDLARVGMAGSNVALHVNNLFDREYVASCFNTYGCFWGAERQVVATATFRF

[6] = molecular target: T2, OprD mutant L8 mmp7turk#3
T2 chain: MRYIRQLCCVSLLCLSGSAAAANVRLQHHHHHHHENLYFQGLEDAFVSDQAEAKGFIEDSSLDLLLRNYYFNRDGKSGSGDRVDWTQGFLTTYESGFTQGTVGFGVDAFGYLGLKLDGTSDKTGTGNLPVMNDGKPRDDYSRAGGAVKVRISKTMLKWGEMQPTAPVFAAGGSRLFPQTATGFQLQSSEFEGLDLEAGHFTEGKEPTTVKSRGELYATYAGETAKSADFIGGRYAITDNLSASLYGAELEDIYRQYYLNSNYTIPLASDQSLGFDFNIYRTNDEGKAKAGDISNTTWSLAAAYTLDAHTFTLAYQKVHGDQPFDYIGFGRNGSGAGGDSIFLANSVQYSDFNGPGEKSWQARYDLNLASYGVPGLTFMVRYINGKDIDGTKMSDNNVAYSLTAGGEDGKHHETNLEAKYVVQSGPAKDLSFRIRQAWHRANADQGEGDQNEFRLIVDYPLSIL

[7] = molecular target: T3, wild type OprD (FadL-OprD with C-terminal two glycines and 6 histidines)
T3 chain: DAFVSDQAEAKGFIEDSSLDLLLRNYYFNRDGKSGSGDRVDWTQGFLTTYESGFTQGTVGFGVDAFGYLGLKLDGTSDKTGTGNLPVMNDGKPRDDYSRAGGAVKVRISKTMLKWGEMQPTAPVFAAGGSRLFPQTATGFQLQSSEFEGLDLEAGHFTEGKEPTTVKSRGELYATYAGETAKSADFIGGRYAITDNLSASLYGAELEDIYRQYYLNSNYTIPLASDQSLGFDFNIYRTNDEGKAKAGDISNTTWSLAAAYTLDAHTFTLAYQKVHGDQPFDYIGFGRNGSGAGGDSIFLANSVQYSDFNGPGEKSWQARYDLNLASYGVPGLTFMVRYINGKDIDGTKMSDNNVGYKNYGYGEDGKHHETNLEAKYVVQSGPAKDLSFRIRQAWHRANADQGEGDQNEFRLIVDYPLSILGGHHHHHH

[8] = molecular target: T4, native OPRD pseudomonas aeruginosa beta barrel channel polypeptide, expressed with surface antigen D15 signal peptide and a tag
T4 chain: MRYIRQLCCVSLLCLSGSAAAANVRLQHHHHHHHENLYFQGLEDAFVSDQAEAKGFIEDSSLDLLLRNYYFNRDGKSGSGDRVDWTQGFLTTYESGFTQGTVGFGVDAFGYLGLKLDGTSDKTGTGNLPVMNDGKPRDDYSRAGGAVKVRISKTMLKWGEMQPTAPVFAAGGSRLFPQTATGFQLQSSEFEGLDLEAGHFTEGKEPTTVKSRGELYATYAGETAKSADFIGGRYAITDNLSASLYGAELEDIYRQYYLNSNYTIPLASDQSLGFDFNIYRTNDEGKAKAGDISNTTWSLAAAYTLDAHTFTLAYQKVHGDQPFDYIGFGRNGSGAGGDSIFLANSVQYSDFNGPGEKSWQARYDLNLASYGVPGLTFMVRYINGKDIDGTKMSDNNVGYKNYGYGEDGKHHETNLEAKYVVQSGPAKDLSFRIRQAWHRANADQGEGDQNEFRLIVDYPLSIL

enterokinase (Novagen, cat#69066-3)
proteolysis over time, gel bands [1]: Incubation of enterokinase with the wild type OprD yields a non specific band, that does not increase over time | proteolysis over time, gel bands [2]: incubating enterokinase with the mutant L8rek#1 (SEQ ID NO: 22798) shows specific cleavage since band “a” disappears and band “b” becomes more apparent over time

factor Xa (Novagen, cat#69036-3)
proteolysis over time, gel bands [1]: Incubation of Factor X enzyme with the wild type OPRD yields a few non specific bands | proteolysis over time, gel bands [3]: incubation of factor X with mutant L8fxa#1 (SEQ ID NO: 22788) shows specific cleavage, since bands “a” and “b” become more apparent with time

human matrix metalloproteases seven (MMP-7, Calbiochem, cat #444270) (from UniProt P09237 95-267) (enzyme)
inward ionic current, whole-cell patch clamp of HEK293T cells expressing FhuA7/10-1 after addition of MMP-7 [4]: 20000 >=

B1: human matrix metalloproteases seven (MMP-7, Calbiochem, cat #444270) (protein)
chain: YSLFPNSPKWTSKVVTYRIVSYTRDLPHITVDRLVSKALNMWGKEIPLHFRKVVWGTADIMIGFARGAHGDSYPFDGPGNTLAHAFAPGTGLGGDAHFDEDERWTDGSSLGINFLYAATHELGHSLGMGHSSDPNAVMYPTYGNGDPQNFKLSQDDIKGIQKLYGKRSNSRKK
cleavage kinetics 0 to 720 min, Western blot and densitometry [5]: the amount of uncleaved protein (˜81 kDa, indicated by ‘a’) decreases while the amount of the cleaved one increases (˜57 kDa, indicated by ‘b’); after 12 hours all His-tagged polypeptides (˜81 kDa) completely disappear along with the ˜57- and ˜37-kDa bands | cleavage of membrane-integrated FhuA7/10-1, Western blot with anti-His5 [5]: Incubation of the membranes with human MMP-7 for 30 minutes at 37 °C resulted in the appearance of ˜57- and ˜37-kDa bands | proteolysis, gel bands [6]: incubating mmp7 with the mutant L8 mmp7turk#3 (SEQ ID NO: 22836) shows cleavage as the main protein band disappears | proteolysis, gel bands [7]: Incubation of MMP7 with wild type OprD yields a few non specific bands, compared with the control sample held at the same temperature for 24 hours but with out the MMP7 | cleavage, Western blot [8]: the native protein (solubilized in DDM) was not cleaved in the presence of MMP-7 (concentration 0.25 Units per 16 ug of total protein)
